{
  "source": "paper PMC5934386",
  "about": "“Active Site Gate Dynamics Modulate the Catalytic Activity of the Ubiquitination Enzyme E2-25K” (Scientific Reports, 2018)",
  "target": "T1, Human ubiquitin (human, UniProt P0CG48 1-76)",
  "T1 construct": "ubiquitin, human; the cut product of the ubiquitin precursors; also called acceptor Ub; source: bought: BostonBiochem (lyophilized)",
  "assay": "NMR titration; 2D 1H-15N HSQC at 600 MHz; [U-15N]-E2-25K at 417-428 uM with ubiquitin at 0, 200, 400, 560, 790 and 1600 uM in six samples; PBS buffer (20 mM sodium phosphate, 150 mM NaCl, DTT, pH 7.4); chemical shift changes fit to a 1:1 binding isotherm; kon and koff from 15N lineshape analysis of G173 (Bloch-McConnell, two site exchange)",
  "details": "both partners purified",
  "data": [
    {"binder": "Human E2-25K (enzyme, UniProt P61086 1-200, looked up, E2-25K (ubiquitin-conjugating enzyme, UBC core domain and UBA domain), human; called 'intact human E2-25K' in the results; cloned into pHis-parallel1; [U-15N]-labelled for the NMR titration; also called wildtype E2-25K; intact human E2-25K; source: E. coli BL21(DE3)-RIPL, purified (His-prep column, TEV cleavage, Superdex 75)) MANIAVQRIKREFKEVLKSEETSKNQIKVDLVDENFTELRGEIAGPPDTPYEGGRYQLEIKIPETYPFNPPKVRFITKIWHPNISSVTGAICLDILKDQWAAAMTLRTVLLSLQALLAAAEPDDPQDAVVANQYKQNPEMFKQTARLWAHVYAGAPVSSPEYTKKIENLCAMGFDRNAVIVALSSKSWDVETATELLLSN", "values": [
      {"measurement": "Kd", "result": "206 ± 30", "unit": "µM"},
      {"measurement": "koff", "result": 5890, "unit": "s⁻¹"},
      {"measurement": "kon", "result": "2.9e+07", "unit": "M⁻¹ s⁻¹"}
    ]}
  ]
}
